From patent US20100278838A1, “EPHA2 MONOCLONAL ANTIBODIES AND METHODS OF USE THEREOF” (MEDIMMUNE, LLC, priority 2002, published 2010) come the findings set out here.

Entries after “also recorded” stand apart in the source; their conditions may differ.

One test deals with EphA2. The test can be described thus: EphA2 degradation / protein level in MDA-MB-231 cells (western blot). Format: cell-based. The conditions noted are these: MDA-MB-231 monolayers, single dose 5 μg/ml, 37° C. The procedure: Monolayers of MDA-MB-231 cells were incubated in the presence of a single dose of 5 μg/ml (A, C) Eph099B-208.261 or (B, D) EA2 for the indicated time at 37° C. Cell lysates were then resolved by SDS-PAGE and subjected to western blot analysis with an EphA2-specific antibody (A, B). The membranes were stripped and re-probed with a β-catenin-specific antibody as a loading control (C, D).
Chain of EphA2 (P29317 24-976): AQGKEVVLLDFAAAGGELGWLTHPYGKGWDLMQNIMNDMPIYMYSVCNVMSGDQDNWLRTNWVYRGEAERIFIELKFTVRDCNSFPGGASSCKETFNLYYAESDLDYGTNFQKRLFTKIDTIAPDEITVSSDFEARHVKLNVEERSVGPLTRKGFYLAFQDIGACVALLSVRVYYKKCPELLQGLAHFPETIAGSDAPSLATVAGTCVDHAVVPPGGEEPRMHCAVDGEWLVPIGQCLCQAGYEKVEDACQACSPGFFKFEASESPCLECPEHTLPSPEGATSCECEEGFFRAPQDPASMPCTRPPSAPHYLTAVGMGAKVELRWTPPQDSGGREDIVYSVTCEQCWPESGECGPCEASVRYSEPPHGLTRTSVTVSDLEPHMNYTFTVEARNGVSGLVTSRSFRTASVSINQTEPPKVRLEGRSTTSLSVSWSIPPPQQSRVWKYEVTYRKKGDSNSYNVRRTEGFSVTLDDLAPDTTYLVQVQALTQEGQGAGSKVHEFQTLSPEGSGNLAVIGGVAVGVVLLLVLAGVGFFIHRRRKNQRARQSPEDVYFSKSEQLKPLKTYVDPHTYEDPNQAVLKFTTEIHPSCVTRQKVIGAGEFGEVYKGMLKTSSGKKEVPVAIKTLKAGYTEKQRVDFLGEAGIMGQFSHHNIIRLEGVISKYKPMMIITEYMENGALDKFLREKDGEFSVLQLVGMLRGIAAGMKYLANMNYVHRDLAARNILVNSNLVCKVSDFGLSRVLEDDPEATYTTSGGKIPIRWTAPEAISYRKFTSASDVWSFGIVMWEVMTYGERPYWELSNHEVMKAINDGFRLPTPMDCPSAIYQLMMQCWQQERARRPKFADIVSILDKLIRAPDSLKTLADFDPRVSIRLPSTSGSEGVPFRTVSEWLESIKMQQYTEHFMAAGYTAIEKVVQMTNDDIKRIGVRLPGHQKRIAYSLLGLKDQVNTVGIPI
Monolayers of MDA-MB-231 cells were incubated in the presence of a single dose of 5 μg/ml Eph099B-233.152 at 37° C. Cell lysates were then immunoprecipitated with D7 (an EphA2-specific antibody), resolved by SDS-PAGE and subjected to western blot analysis with (A) a phosphotyrosine-specific antibody or (B) an EphA2-specific antibody.
Monolayers of MDA-MB-231 cells were incubated in the presence of EphA2 agonistic antibodies at 37° C. Cell lysates were then resolved by SDS-PAGE and subjected to western blot analysis with an EphA2-specific antibody (D7). […] Some membranes were stripped and re-probed with a β-catenin-specific antibody as a loading control (FIGS. 3C-3D). […] Decreased EphA2 expression is due, in part, to deceased mRNA expression levels in response to EphA2 protein degradation caused by agonistic antibody binding (data not shown).
Western blot analyses and immunoprecipitations were performed as described previously (Zantek et al., 1999, Cell Growth Diff. 10:629-38, which is incorporated by reference in its entirety). Briefly, detergent extracts of cell monolayers were extracted in Tris-buffered saline containing 1% Triton X-100 (Sigma, St. Louis, Mo.). After measuring protein concentrations (BioRad, Hercules, Calif.), 1.5 mg of cell lysate was immunoprecipitated, resolved by SDS-PAGE and transferred to nitrocellulose (PROTRAN™, Schleicher and Schuell, Keene, N.H.). Antibody binding was detected by enhanced chemiluminescence (Pierce, Rockford, Ill.) and autoradiography (Kodak X-OMAT; Rochester, N.Y.).
Background: In western blotting, separated proteins are transferred to a membrane and probed.

Test [1] has as its system MDA-MB-231 breast cancer cells implanted subcutaneously. The test can be described thus: Tumor growth and survival in vivo, MDA-MB-231 implanted subcutaneously. Also on record: species or system athymic mice. The conditions noted are these: for Growth of MDA-MB-231 cells implanted subcutaneously: 6mg/kg intraperitoneally twice a week for 3 weeks, versus PBS or 1A7. Here is the method:
MDA-MB-231 cells were implanted subcutaneously into athymic mice. After the tumors had grown to an average volume of 100 mm^3, mice were administered 6 mg/ml Eph099B-233.152 or PBS control intraperitoneally twice a week for 3 weeks. (A) Tumor Growth. Tumor growth was assessed and expressed as a ratio of the tumor volume divided by initial tumor volume (100 mm^3). Control mice are indicated by circles and Eph099B-233.152-treated mice are indicated by squares. Arrows indicate time of Eph099B-233.152 or PBS administration. (B) Survival. Tumor growth was allowed to proceed until tumor volume reached 1000 mm^3. Survival of the mice was assessed by scoring the percent of mice living each day post treatment. Control mice are indicated by grey and Eph099B-233.152-treated mice are indicated by black.
FIGS. 7A-7D: The EphA2 antibodies, EA2, Eph099B-208.261, and Eph099B-233.152, inhibit tumor cell growth in vivo. MDA-MB-231 breast cancer cells were implanted (A) orthotopically or (B) subcutaneously into athymic mice. (C) A549 lung cancer cells were implanted subcutaneously into athymic mice. After the tumors had grown to an average volume of 100 mm^3, mice were administered 6 mg/kg of the indicated antibody or negative control (PBS or 1A7 antibody) intraperitoneally twice a week for 3 weeks. Tumor growth was assessed and expressed as a ratio of the tumor volume divided by initial tumor volume (100 mm^3). (D) MDA-MB-231 breast cancer cells were implanted subcutaneously into athymic mice. After the tumors had grown to an average volume of 100 mm^3, mice were administered 6 mg/kg of the indicated antibody or negative control intraperitoneally twice a week for 3 weeks. Total tumor volume was determined after sacrifice. Negative control is black, EA2 is white, Eph099B-208.261 is dark grey, and Eph099B-233.152 is light grey.
The ability of the antibodies of the invention to inhibit tumor cancer growth in vivo was assayed. Eph099B-233.152 can inhibit tumor cell growth in vivo and extend survival time of tumor-bearing mice. Briefly, 5×10^6 MDA-MB-231 breast cancer cells were implanted subcutaneously into athymic mice. After the tumors had grown to an average volume of 100mm^3, mice were administered 6mg/ml Eph099B-233.152 or PBS control intraperitoneally twice a week for 3 weeks. Tumor growth was assessed and expressed as a ratio of the tumor volume divided by initial tumor volume (100 mm^3). […] Tumor growth was allowed to proceed until tumor volume reached 1000 mm^3. Survival of the mice was assessed by scoring the percent of mice living each day post treatment. […] By day 36, all of the mice in the control group had died in contrast with only 70% of the mice admixture Eph099B-233.152.
5×10^6MDA-MB-231 breast cancer cells were implanted orthotopically or subcutaneously and 5×10^6 A549 lung cancer cells were implanted subcutaneously into athymic mice. After the tumors had grown to an average volume of 100 mm^3, mice were administered 6mg/kg of an EphA2 agonistic antibody or negative control (PBS or 1A7 antibody) intraperitoneally twice a week for 3 weeks. Animals were generally sacrificed at least two weeks after the last treatment or when tumors exceeded 2000 mm^3. Tumor growth was assessed and expressed either as a ratio of the tumor volume divided by initial tumor volume (100 mm^3) or as total tumor volume. Growth of MDA-MB-231 cells implanted orthotopically was inhibited by EA2 (FIG. 7A). Growth of MDA-MB-231 cells implanted subcutaneously was inhibited by EA2, Eph099B-208.261, and Eph099B-233.152 (FIG. 7B, D). Growth of A549 cells implanted subcutaneously was inhibited by EA2, or Eph099B-208.261 (FIG. 7C).

B1: Eph099B-208.261: EphA2 monoclonal antibody; hybridoma ATCC PTA-4573; VL SEQ ID NO:1, VH SEQ ID NO:5 (antibody, listed as Homo sapiens, V domains shown)
VH: QVQLQQPGAELVKPGASVKLSCKASGYTFTSYWMHWVKQRPGQGLEWIGMIHPNSGSTNYNEKFKSKATLTVDKSSSTAYMRLSSLTSEDSAVYYCARGGNMVGGGYWGQGTTLTVSS
VL: QIVLTQSPALMSASPGEKVTMTCSASSSVSYMYWYQQKPRSSPKPWIYLTTNLASGVPARFSGSGSGTSYSLTISSMEAEDAATYYCQQWSSNPFTFGSGTKLEIR
As for B1, in the test with EphA2, the EphA2 protein level entry is recorded as “decreased EphA2 protein level”. The “Growth of MDA-MB-231 cells implanted subcutaneously” value in test [1] is listed as “inhibited”.

B2: EA2: EphA2 agonistic monoclonal antibody; ATCC deposit no. PTA-4380; co-pending application Ser. No. 10/436,783; VL SEQ ID NO:33, VH SEQ ID NO:37 (antibody, listed as Homo Sapiens, V domains shown)
VH: DVKLVESGGGLVKPGGSLKLSCAASGFTFSSYTMSWVRQTPEKRLEWVATISSGGTYTYYPDSVKGRFTISRDNAKNTLYLQMSSLKSEDTAMYYCTREAIFTYWGQGTLVTVSA
VL: DIKMTQSPSSMYASLGERVTITCKASQDINNYLSWFQQKPGKSPKTLIYRANRLVDGVPSRFSGSGSGQDYSLTISSLEYEDMGIYYCLKYDEFPYTFGGGTKLEIK
As for B2, the EphA2 protein level entry in the test on EphA2 was “decreased EphA2 protein level”. Besides, the “Growth of MDA-MB-231 cells implanted subcutaneously” value in test [1] was “inhibited”.

B3: Eph099B-233.152: EphA2 monoclonal antibody; hybridoma ATCC PTA-5194; VL SEQ ID NO:17, VH SEQ ID NO:21 (antibody, listed as Homo sapiens, V domains shown)
VH: EVKLVESGGGLVQPGGSLSLSCAASGFTFTDYSMNWVRQPPGKALEWLGFIRNKANDYTTEYSASVKGRFTISRDNSQSILYLQMNALRAEDSATYYCVRYPRYHAMDSWGQGTSVTVSS
VL: DIVLTQSPATLSVTPGDSVNLSCRASQSISNNLHWYQQKSHESPRLLIKYVFQSISGIPSRFSGSGSGTDFTLSINSVETEDFGMYFCQQSNSWPLTFGAGTKLELK
Regarding B3, in the test with EphA2, the EphA2 protein level entry is given as “decreased EphA2 protein level; also recorded: EphA2 degradation”. For the same molecule, the “Growth of MDA-MB-231 cells implanted subcutaneously” value in test [1] is “inhibited”. Besides, the “Mice that had died by day 36” value in test [1] (6mg/ml intraperitoneally twice a week for 3 weeks, all control mice had died) turned out to be 70%. Also, the “Survival of the mice (percent of mice living each day post treatment)” value in test [1] (6mg/ml intraperitoneally twice a week for 3 weeks, versus PBS) is “A greater percentage of mice survived at each time point examined”. Also, in test [1] (6mg/ml intraperitoneally twice a week for 3 weeks, versus PBS, after 30 days), the “Tumor growth (tumor volume divided by initial tumor volume)” value is reported as “smaller tumors than mice administered PBS; also recorded: inhibits tumor cell growth in vivo”.
